“Also recorded” adds a separate entry of the source.
What was measured:
HAUSP [1] = target: T1, HAUSP (Homo sapiens, UniProt Q93009); assay: Co-IP / GST pull-down of HAUSP; assay type: binding; conditions: transfected 293T cells
[2] = target: HAUSP TRAF domain (HAUSP^62–205) (Homo sapiens, UniProt Q93009); assay type: binding; conditions: ITC
HAUSP [3] = target: T1, HAUSP; assay: In vitro deubiquitination; assay type: biochemical; conditions: immunopurified Flag-HAUSP complexes, K48-linked 3–7 polyubiquitin chains
p53 = p53 ubiquitination on vIRF4 expression; assay type: cell-based

T1 sequence (Q93009 whole entry, the tested form may be a part): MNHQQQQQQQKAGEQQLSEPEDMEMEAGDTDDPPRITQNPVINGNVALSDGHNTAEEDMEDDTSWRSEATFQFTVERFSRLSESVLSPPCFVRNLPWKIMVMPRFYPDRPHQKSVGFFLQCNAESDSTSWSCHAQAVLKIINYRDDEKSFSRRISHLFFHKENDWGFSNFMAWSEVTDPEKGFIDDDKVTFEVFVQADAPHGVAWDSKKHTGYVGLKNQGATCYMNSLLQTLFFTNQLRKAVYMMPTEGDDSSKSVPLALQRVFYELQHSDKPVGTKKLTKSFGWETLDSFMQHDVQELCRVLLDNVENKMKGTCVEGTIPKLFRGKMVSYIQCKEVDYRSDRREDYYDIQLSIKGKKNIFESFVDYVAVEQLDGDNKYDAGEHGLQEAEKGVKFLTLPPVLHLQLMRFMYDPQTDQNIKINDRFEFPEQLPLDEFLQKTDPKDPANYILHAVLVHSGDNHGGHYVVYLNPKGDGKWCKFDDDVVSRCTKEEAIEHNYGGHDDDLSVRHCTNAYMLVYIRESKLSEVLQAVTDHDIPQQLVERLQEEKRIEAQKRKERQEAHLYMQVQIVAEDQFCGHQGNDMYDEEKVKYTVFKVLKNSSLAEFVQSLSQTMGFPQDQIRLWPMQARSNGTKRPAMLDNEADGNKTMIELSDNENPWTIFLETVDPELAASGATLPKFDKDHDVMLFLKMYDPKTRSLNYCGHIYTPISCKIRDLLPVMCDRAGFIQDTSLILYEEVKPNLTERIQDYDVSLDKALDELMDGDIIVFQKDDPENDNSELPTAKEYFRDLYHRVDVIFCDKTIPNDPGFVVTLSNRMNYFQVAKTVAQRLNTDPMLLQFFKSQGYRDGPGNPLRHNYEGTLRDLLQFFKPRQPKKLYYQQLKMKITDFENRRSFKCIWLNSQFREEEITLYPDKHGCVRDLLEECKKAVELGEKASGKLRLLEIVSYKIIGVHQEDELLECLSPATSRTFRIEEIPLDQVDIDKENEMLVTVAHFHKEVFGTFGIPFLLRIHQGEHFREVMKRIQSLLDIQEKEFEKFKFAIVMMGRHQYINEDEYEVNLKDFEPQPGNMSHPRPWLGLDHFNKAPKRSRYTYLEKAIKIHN
Chain of HAUSP TRAF domain (HAUSP^62–205) (Q93009 62-205): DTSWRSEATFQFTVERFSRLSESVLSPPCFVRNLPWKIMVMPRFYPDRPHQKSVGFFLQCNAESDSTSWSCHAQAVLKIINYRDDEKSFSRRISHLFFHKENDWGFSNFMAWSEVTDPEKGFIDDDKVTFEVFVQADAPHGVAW

B1: vIRF4^153–256: central region fragment of vIRF4, residues 153–256 (protein)
chain: SDTREQSYEEAGAAAPAPPKAPSGLRGRPRKSNRYYNVGDITTEQKAACSVWIPVNEGASTSGMGSSGTRQVTQASSFTWRVPGDPPAPSTLTGPSDPHSSGAG
interaction with HAUSP (HAUSP [1]): specifically interacts with; also recorded: sufficient to bind to HAUSP | fold higher TRAF affinity (C-terminally extended) ([2]; compared with vIRF4^153–216 / vIRF4^202–216): 7 fold

B2: vIRF4^153–256/Δ202–216: vIRF4^153–256 with residues 202–216 deleted (protein)
chain: SDTREQSYEEAGAAAPAPPKAPSGLRGRPRKSNRYYNVGDITTEQKAACGSSGTRQVTQASSFTWRVPGDPPAPSTLTGPSDPHSSGAG
TRAF binding affinity, in words [2]: significant reduction of TRAF binding affinity

B3: vIRF4^153–256/Δ202–216/Δ237–256: vIRF4^153–256 with residues 202–216 and 237–256 deleted (protein)
chain: SDTREQSYEEAGAAAPAPPKAPSGLRGRPRKSNRYYNVGDITTEQKAACGSSGTRQVTQASSFTWRVPG
TRAF binding affinity, in words [2]: had no further effect

B4: vIRF4: KSHV viral interferon regulatory factor 4 (protein)
chain: MPKAGGSEWATLWIIDALENNKFPYFSWFDRNNLLFAAPAPLPAGSDIPPGWYSVYHAFDEECDRVYGPSPVVGQTVYGRFGRLLRGTRRAVVRNDLRYSDTFGGSYVVWQLVRTPFKNCTYCYGAAYGPEKLQRFIQCLLSPPMQTTATRRSDTREQSYEEAGAAAPAPPKAPSGLRGRPRKSNRYYNVGDITTEQKAACSVWIPVNEGASTSGMGSSGTRQVTQASSFTWRVPGDPPAPSTLTGPSDPHSSGAGLPGTAPPKPQHETRLAGTVSGVSGVAQTPGDTGQLAPPMRDGSRLPSTSPWIPACFPWGDLPVTGWWPQGASGLPEKVHPPTTGQFDPLSPRWTYTGIPSSQLNPAAPSWIPPHAQAGTFVGEFSQGAPLAPQGLLPQSGQCASAWLPRRETGAEGACGASTEGRAPQGAASERVYPFEPQPPSAPAPGYAKPSCYNWSPLAEPPATRPIRAPVWHPPVGHAVVPEVRTPLWIPWSSGGAPNQGLSHTQGGASATPSAGAPPTPEVAERQEPSSSGIPYVCQGDNMATGYRRVTTSSGALEVEIIDLTGDSDTPSTTVASTPLPVSGPRVFQPTVLYSAPEPAVNPEVSHLPTELERRECVCPGSGERPRVPLVSTYAGDRYAVGGYGPEQSLVPPPLGLPLTLSNLQGEDICTWEEGLGNILSELQEEPSSSTRQATDRRRPRSRSPHGRRTPVSHSGPEKPPSKMFFDPPDSQRVSFVVEIFVYGNLRGTLRREGDAGEAMLCSWPVGDTLGHLCQSFVPELLRIPRLTVPSPEQMEILNRVFEGLGHGFPIFCSMSGIYSRNATQVEGWWFGNPNSRYERILRSFSPRVPQQLFNTARYLATTAAIPQTPLSVNPVTCGTVFFGASPASTENFQNVPLTVKIFIGSIWDSLH
modifications: left off: V5, end not stated, kept
HAUSP DUB activity (HAUSP [3]): effectively suppressed HAUSP DUB activity in a binding-dependent manner | p53 ubiquitination (p53): markedly induced p53 ubiquitination

— publication PMC3589550 (Nature structural & molecular biology, 2011)
